# Experimental data reported in patent publication US20250339501A1, “COMPOSITIONS AND METHODS FOR TREATING METABOLIC DISEASE” (The Regents of the University of California, priority 2021, published 2025).
# B1: rDj1: full-length recombinant Dj1 protein; mouse protein (Novus, NBP2-59523) injected in mice, human protein used in HepG2 cells (protein, UniProt Q99LX0 1-189, looked up)
# chain: MASKRALVILAKGAEEMETVIPVDVMRRAGIKVTVAGLAGKDPVQCSRDVMICPDTSLEDAKTQGPYDVVVLPGGNLGAQNLSESPMVKEILKEQESRKGLIAAICAGPTALLAHEVGFGCKVTTHPLAKDKMMNGSHYSYSESRVEKDGLILTSRGPGTSFEFALAIVEALVGKDMANQVKAPLVLKD
# modifications: full-length
# notes: full-length recombinant Dj1 protein; mouse protein (Novus, NBP2-59523) injected in mice, human protein used in HepG2 cells
# Legend:
# NC-fed C57BL/6J mice = assay: rDj1 tail-vein injection daily for 5 days in NC-fed mice; format: in vivo, mouse; details: 0.15 mg/kg/day IV for 5 days
# Description: C57BL/10cSn-Dmd^mdx/J (001801, mdx) and C57BL/10ScSnJ (000476, WT) mice were ordered directly from The Jackson Laboratory. Different ages of mdx and WT mice were obtained. Animals were weaned 21 days after birth and had free access to food and water and were housed on 12 h light-dark cycle. C57BL/6J males were introduced to a normal diet (NC, Research Diets D15100601) or high-fat diet (HFD, Research Diets D12331), and maintained on a diet for the indicated time. The HFD diet derives 58% of its kilocalories (kcal) from fat (soybean and coconut oil), 25.5% from carbohydrates (sucrose and maltodextrin), and 16.4% from protein (casein). NASH model mice were fed for up to 28 weeks with the NASH diet (Envigo, TD.120528) and 42% fructose (Sigma, F0127) in the water (1,2). The NASH diet is composed of 405.36 g/Kg sucrose and 12.5 g/Kg cholesterol. Recombinant mouse Dj1 protein (Novus, NBP2-59523) or truncated mouse Dj1 (tDj1, GenScript) protein was intravenously injected every day for 5 days or every other day for 2 weeks. Skeletal muscle-specific Park7 knockout mice were generated by crossing Park7 flox mice with Myl1-cre mice (JAX, #024713). Mice were raised in microisolator cages with a 12 h: 12 h light: dark cycle. […]
# Plasma and liver NEFA, Cholesterol, and Triglyceride were analyzed by their respective kits (FUJIFILM Wako Diagnostics) […]
# [1] = Intravital imaging of IRDye 800CW-labeled Dj1 after tail-vein injection; format: in vivo, mouse; details: WT mice
# Description: Recombinant mouse Dj1 protein (NBP2-59523, Novus) were labeled with near-infrared dyes using IRDye 800CW protein labeling kit-Low MW (Li-COR Biosciences) as described in the manufacturer's instructions. 10 μg of labeled Dj1 protein was injected into wild-type C57BL/6J mouse through the tail vein. The mice were imaged at the indicated time using an IVIS Spectrum (PerkinElmer). For tissue analysis, recipient mice were euthanized by cervical dislocation, and tissues were then dissected and imaged. Fluorescence was detected using excitation and emission filters at 745 nm and 800 nm, respectively.
# (§1) Myokines contribute to whole-body metabolism by directly signaling to distant organs (15-18). To determine which organs Dj1 targets, WT mice were tail-vein injected with a recombinant Dj1 (rDj1) protein labeled with the near-infrared fluorescent dye IRDye 800CW, and the fluorescent signals were tracked using an optical imaging system (FIGS. 3I, 3J). A robust fluorescent signal could be detected within 5 minutes post-injection. […] Considering that the reagents injected through tail-vein often nonspecifically target the liver, fluorescent-labeled rDj1 was used to determine whether Dj1 could bind to the plasma membrane of liver cells. rDj1 was labeled with Alex 488 and added into the medium of mouse liver cells (AML12 cells) at the indicated time.
# AML12 cells = assay: Fluorescent-labeled rDj1 binding to plasma membrane of liver cells; format: cell-based, mouse; details: Alex 488-labeled rDj1 added to medium, fluorescent microscopy
# Description: as §1
# HFD-fed mice = assay: Indirect calorimetry in HFD-fed mice; format: in vivo, mouse
# Description: Elevated AMPK signaling and reduced lipid content in the liver led to the hypothesis that rDj1 might activate the whole-body energy metabolism of mouse. Therefore, the metabolic rate was determined in HFD-fed mice by indirect calorimetry.
# AMPK = AMPK phosphorylation immunoblot in HepG2 cells; format: cell-based, human
# Description: Mouse myoblast cells (C2C12) were maintained in high glucose DMEM/high, 10% fetal bovine serum with penicillin/streptomycin. pRK5-Dj1-HA plasmid was purchased from Addgene (#29396). Seeded cells were cultured in 6-well plates for 24 hours prior to transfection. Transfections were performed using Lipofectamine 2000 and PLUS reagent according to manufacturer instructions (Invitrogen, Carlsbad, CA). Human HepG2 cells were cultured in DMEM/low media containing 10% fetal bovine serum with penicillin/streptomycin. Mouse AML12 cells were maintained in DMEM/F12, ITS supplement (Gibco, USA), 40 ng/ml dexamethasone, and 10% fetal bovine serum with penicillin/streptomycin. For in vitro experiments, HepG2 cells were treated with or without recombinant human Dj1 protein (Novus, NBC1-18334) in serum-free media containing 25 mM glucose, 200 μM palmitic acid, and 0.25% bovine serum albumin for an indicated time.
# mitochondrial complex I = assay: Complex I activity of isolated liver mitochondria from treated HFD-fed mice; format: in vivo, mouse
# HepG2 cells = assay: Reactive oxygen species in HepG2 cells; format: cell-based, human; details: baseline and TNFα-induced
# Excerpt: (§2) A wide variety of mechanisms activate the JNK pathway. […] Moreover, ASK1 is activated by various stresses, including oxidative stress, ER stress, calcium overload, and receptor-mediated inflammatory signals such as TNFα and lipopolysaccharide (LPS) (26,27). rDj1 administration suppressed both baseline and TNFα-induced ROS levels in HepG2 cells, which may contribute to reducing liver inflammation (FIG. 6F).
# AMPK signaling = assay: RNA sequencing analysis of HepG2 cells; format: cell-based, human
# [2] = test system: liver inflammation, de-novo lipogenesis and gluconeogenesis genes; assay: Gene expression in the liver of NC- or HFD-fed mice; format: in vivo, mouse
# Description: as §2
# Also, the transcriptional activity of PPARα was determined to be elevated by Dj1 administration in the liver of both NC- and HFD-fed mice (FIGS. 6L, 6M, 6S, 6T). Furthermore, Dj1 elevated plasma β-hydroxybutyrate (a ketone body) levels in NC-fed mice but not in HFD-fed mice (FIG. 6N, 6U).
# mitochondrial complex II = assay: Complex II activity of isolated liver mitochondria from treated HFD-fed mice; format: in vivo, mouse
molecule,measurement,setting,value
B1,plasma cholesterol levels,NC-fed C57BL/6J mice,significantly reduced
same,plasma non-esterified fatty acids (NEFA),NC-fed C57BL/6J mice,significantly reduced
same,organs in which most fluorescent signals accumulated,"[1]; 4 hours post-injection, tail-vein","accumulated in the liver, kidney, and urine"
same,time until robust fluorescent signal detected post-injection,"[1]; IRDye 800CW-labeled rDj1, tail-vein",≤ 5 min
same,localization of labeled rDj1 on liver cells,AML12 cells,colocalized with the plasma membrane
same,energy expenditure (EE),HFD-fed mice,elevated
same,oxygen consumption (VO2),HFD-fed mice,elevated
same,respiratory exchange ratio (RER),HFD-fed mice,reducing
same,phosphorylation of AMPK,AMPK,elevated
same,mitochondrial complex I activity,mitochondrial complex I,Enhanced
same,ROS levels,HepG2 cells,suppressed
same,AMPK signaling (RNA sequencing analysis),AMPK signaling,upregulated
same,reduction of gene expression of de-novo lipogenesis,[2]; liver of HFD-fed mice,blunted
same,reduction of gene expression of gluconeogenesis,[2]; liver of HFD-fed mice,blunted
same,gene expression of de-novo lipogenesis,[2]; liver of NC-fed mice,reduced
same,gene expression of gluconeogenesis,[2]; liver of NC-fed mice,reduced
same,mitochondrial complex II activity,mitochondrial complex II,Enhanced
